From patent publication US20150322152A1 (INSTITUT PASTEUR, published 2015)
Blank lines part the entries; values can stand above or below the molecule they belong to.

What was measured:
[1] = target: human FcγRI receptor (immobilized for SPR; form not stated) (human) (UniProt P12314); assay: SPR, IgG injected onto immobilized hFcγRI
[2] = target: human FcγRI receptor (immobilized for SPR; form not stated) (human) (UniProt P12314); assay: SPR, IgG injected onto immobilized hFcγRI; remark: listed apart in the source
[3] = target: human FcγRI receptor (immobilized for SPR; form not stated) (human) (UniProt P12314); assay: SPR on immobilized hFcγRI (summary sentence; the table prints 41)
[4] = target: T1, human FcγRI receptor (immobilized for SPR; form not stated) (human, UniProt P12314 16-288, limits assumed); assay: method not stated
T1 construct: also called hFcγRI; immobilized hFcγRI
T1 sequence (P12314 16-288 limits assumed): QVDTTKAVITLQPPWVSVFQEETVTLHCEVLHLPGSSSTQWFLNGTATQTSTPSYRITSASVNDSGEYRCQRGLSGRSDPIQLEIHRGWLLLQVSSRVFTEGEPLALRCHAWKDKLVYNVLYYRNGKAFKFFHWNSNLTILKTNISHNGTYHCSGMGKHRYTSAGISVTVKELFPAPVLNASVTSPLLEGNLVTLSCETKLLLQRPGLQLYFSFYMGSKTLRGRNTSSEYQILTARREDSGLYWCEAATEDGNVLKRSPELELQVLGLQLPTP

human FcγRI receptor (immobilized for SPR; form not stated) (human), sequence (P12314 16-288 limits assumed): as above

Half life [1]: 3.6 min
Kd [1]: 41 nM
koff [1]: 0.0014 s⁻¹
kon [1]: 35000 M⁻¹ s⁻¹
Ka [2]: 2.5e+07 M⁻¹
Kd [2]: 40 nM
Kd [3]: 40 nM
Molecule: human IgG1 (antibody)

Half life [1]: 4.52 min
Kd [1]: 38 nM
koff [1]: 0.0011 s⁻¹
kon [1]: 36000 M⁻¹ s⁻¹
Ka [2]: 2.5e+07 M⁻¹
Kd [2]: 40 nM
Molecule: mouse IgG2a (antibody)

Ka [4]: 1.5e+09 M⁻¹
B1: anti-hFcγRI.1 monoclonal antibody (antibody, mouse IgG2a, V domains shown)
VH: EVQLQESGPGLVQPSQSLSITCTVSGFSLTTYGVHWVRQSPGKGLEWLGMIWSGGSTDYNAAFISRLSISKDNSKSQVFFKMNSLQADDTAIYYCAREWFAYWGQGTSVTVSS
VL: ELVMTQSPASLSASVGETVTITCRASENIYSYLAWYQQKQGKSPQLLVYSAKTLAEGVPSRFSGSGSGTQFSLKINSLQPEDFGSYYCQHHYGTPYTFGGGTKMEIK
notes: Mouse IgG2a; IgG purified by Protein G from hybridoma supernatant; also called anti-hFcγR1.1; hFcγRI.1 mAb
